Data from US20220175916A1, “METHODS AND COMPOSITIONS FOR TREATING CHRONIC EFFECTS OF RADIATION AND CHEMICAL EXPOSURE” (priority 2018, published 2022).

Key:
[1] = tested on: transgenic mouse model p16-3MR; conditions: cited from earlier work; for Effect of elimination of senescent cells on running activity and strength: after doxorubicin or paclitaxel
[2] = tested on: transgenic mouse model p16-3MR; conditions: cited from earlier work
[3] = tested on: breast cancer cells (MMTV-PyMT); conditions: cited from earlier work
[4] = tested on: transgenic mouse model p16-3MR; conditions: cited from earlier work; for Induction of senescence in vivo: keratinocytes, endothelial cells, fibroblasts and smooth muscle cells; for p16INK4a expression in the skin: mice administered the agent
[5] = tested on: human histiocytic lymphoma U937 cell line; experiment: Senescence-associated β-galactosidase assay by fluorescent microscope imaging; assay type: cell-based
Method: Cells from the human histiocytic lymphoma U937 cell line were treated with doxorubicin, a chemotherapeutic agent, to induce senescence. Cells were treated with 0 μM, 0.01 μM, 0.1 μM or 1 μM doxorubicin for 3 days, or were treated with 0 μM, 0.1 μM or 1 μM doxorubicin for 6 days. Senescence was measured with a senescence-associated β-galactosidase assay by fluorescent microscope imaging.

[6] = tested on: murine embryonic fibroblasts, murine dermal fibroblasts and human dermal fibroblasts; conditions: fibroblasts treated in vitro; cited from earlier work
[7] = molecular target: carboxymethyl lysine conjugated to keyhole limpet hemocyanin (CML-KLH); experiment: direct ELISA, CML-KLH coat 1 ug/mL, antibody at 50 ug/mL
[8] = molecular target: carboxymethyl lysine conjugated to keyhole limpet hemocyanin (CML-KLH); experiment: direct ELISA, CML-KLH coat 1 ug/mL, antibody at 0.07 ug/mL
[9] = molecular target: carboxymethyl lysine conjugated to keyhole limpet hemocyanin (CML-KLH); experiment: direct ELISA, CML-KLH coat 1 ug/mL, antibody at 0.21 ug/mL
[10] = molecular target: carboxymethyl lysine conjugated to keyhole limpet hemocyanin (CML-KLH); experiment: direct ELISA, CML-KLH coat 1 ug/mL, antibody at 0.62 ug/mL
[11] = molecular target: carboxymethyl lysine conjugated to keyhole limpet hemocyanin (CML-KLH); experiment: direct ELISA, CML-KLH coat 1 ug/mL, antibody at 1.85 ug/mL
[12] = molecular target: carboxymethyl lysine conjugated to keyhole limpet hemocyanin (CML-KLH); experiment: direct ELISA, CML-KLH coat 1 ug/mL, antibody at 5.56 ug/mL
[13] = molecular target: carboxymethyl lysine conjugated to keyhole limpet hemocyanin (CML-KLH); experiment: direct ELISA, CML-KLH coat 1 ug/mL, antibody at 16.67 ug/mL
[14] = molecular target: carboxymethyl lysine conjugated to keyhole limpet hemocyanin (CML-KLH); experiment: direct ELISA, CML-KLH coat 1 ug/mL, antibody at 0 ug/mL (buffer control, background)
[15] = tested on: CML-KLH; experiment: Direct binding ELISA, CML-KLH coat; conditions: for OD450 absorbance: CML-KLH Coat
Excerpt: (§1) The binding of the murine (parental) and chimeric anti-AGE antibodies described in Example 3 was investigated by a direct binding ELISA. An anti-carboxymethyl lysine (CML) antibody (R&D Systems, MAB3247) was used as a control. CML was conjugated to KLH (CML-KLH) and both CML and CML-KLH were coated overnight onto an ELISA plate. HRP-goat anti-mouse Fc was used to detect the control and murine (parental) anti-AGE antibodies. HRP-goat anti-human Fc was used to detect the chimeric anti-AGE antibody.
(§2) The antigens were diluted to 1 μg/mL in 1× phosphate buffer at pH 6.5. A 96-well microtiter ELISA plate was coated with 100 μL/well of the diluted antigen and let sit at 4° C. overnight. The plate was blocked with 1×PBS, 2.5% BSA and allowed to sit for 1-2 hours the next morning at room temperature. The antibody samples were prepared in serial dilutions with 1×PBS, 1% BSA with the starting concentration of 50 μg/mL. Secondary antibodies were diluted 1:5,000. 100 μL of the antibody dilutions was applied to each well. The plate was incubated at room temperature for 0.5-1 hour on a microplate shaker. The plate was washed 3 times with 1×PBS. 100 μL/well diluted HRP-conjugated goat anti-human Fc secondary antibody was applied to the wells. The plate was incubated for 1 hour on a microplate shaker. The plate was then washed 3 times with 1×PBS. 100 μL HRP substrate TMB was added to each well to develop the plate. After 3-5 minutes elapsed, the reaction was terminated by adding 100 μL of 1N HCl. A second direct binding ELISA was performed with only CML coating. The absorbance at OD450 was read using a microplate reader.
(§3) The OD450 absorbance raw data for the CML and CML-KLH ELISA is shown in the plate map below. 48 of the 96 wells in the well plate were used. Blank wells in the plate map indicate unused wells.

[16] = Direct binding ELISA, CML coat
Excerpt: as §1, §2, §3
The OD450 absorbance raw data for the CML-only ELISA is shown in the plate map below. 24 of the 96 wells in the well plate were used. Blank wells in the plate map indicate unused wells.

CC1(C)CCC(c2ccc(Cl)cc2)=C(CN2CCN(c3ccc(C(=O)NS(=O)(=O)c4ccc(N[C@H](CCN5CCOCC5)CSc5ccccc5)c(S(=O)(=O)C(F)(F)F)c4)cc3)CC2)C1 [ABT-263]
Effect of elimination of senescent cells on running activity and strength [1]: nearly reversed the decline in running activity and improved the loss of strength

Nc1nc(O)c2ncn(COC(CO)CO)c2n1 [GCV, ganciclovir]
Effect of elimination of senescent cells on inflammatory factors, HPCs and cardiac function ([2]; after doxorubicin): reduced circulating inflammatory factors, promoted the functional recovery of HPCs and prevented cardiac dysfunction
Survival and cancer metastases vs doxorubicin followed by vehicle ([3]; doxorubicin followed by GCV): increased survival and reduced cancer metastases
Tumor growth, metastases and metastatic foci vs vehicle ([3]; surgical removal of palpable tumors prior to treatment): smaller tumor growth, reduced cancer metastases and fewer metastatic foci
Effect of elimination of senescent cells on running activity and strength [1]: nearly reversed the decline in running activity and improved the loss of strength

N.N.[Cl][Pt][Cl] [cisplatin]
Induction of senescence in vivo [4]: induced senescence in various cell types
p16INK4a expression in the skin [4]: elevated p^16INK4a expression in the skin

COc1cccc2c1C(=O)c1c(O)c3c(c(O)c1C2=O)C[C@@](O)(C(=O)CO)C[C@@H]3O[C@H]1C[C@H](N)[C@H](O)[C@H](C)O1 [doxorubicin]
Cells that fluoresce (senescence-associated β-galactosidase) ([5]; 0.01 μM for 3 days): about 85%
Cells that fluoresce (senescence-associated β-galactosidase) ([5]; 0.1 μM for 3 days): about 65%
Cells that fluoresce (senescence-associated β-galactosidase) ([5]; 0.1 μM for 6 days): about 85%
Cell death ([5]; 1 μM): significant cell death
Cells that fluoresce (senescence-associated β-galactosidase) ([5]; 1 μM for 3 days): about 60%
Cells that fluoresce (senescence-associated β-galactosidase) ([5]; 1 μM for 6 days): about 85%
Concentration of peak senescence induction ([5]; treatment for 3-6 days): 0.1 µM
Induction of cellular senescence (SA-β-gal, DNA synthesis, p16INK4a mRNA, SASP, p21, LaminB1) [6]: symptoms of cellular senescence
Induction of senescence in vivo [4]: induced senescence in various cell types
Effect on SASP factor genes, HPC function and cardiac function ([2]; genetically engineered mice): increased expression of SASP factor genes associated with inflammation, reduction of hematopoietic progenitor cell (HPC) function and reduction in cardiac function
Chemotherapy-induced fatigue and strength ([1]; running activity): chemotherapy-induced fatigue, as measured by running activity, and decline in strength

CC(=O)O[C@H]1C(=O)[C@@]2(C)[C@H]([C@H](OC(=O)c3ccccc3)[C@]3(O)C[C@H](OC(=O)[C@H](O)[C@@H](NC(=O)c4ccccc4)c4ccccc4)C(C)=C1C3(C)C)[C@]1(OC(C)=O)CO[C@@H]1C[C@@H]2O [paclitaxel]
Induction of cellular senescence (SA-β-gal, DNA synthesis, p16INK4a mRNA, SASP, p21, LaminB1) [6]: symptoms of cellular senescence

Cn1nnc2c(C(N)=O)ncn2c1=O [temozolomide]
Induction of senescence in vivo [4]: induced senescence in various cell types
p16INK4a expression in the skin [4]: elevated p^16INK4a expression in the skin

carboxymethyl lysine MAb (Clone 318003), R&D Systems, catalog no. MAB3247 (antibody)
OD450 [7]: 0.462 OD450
OD450 [8]: 0.086 OD450
OD450 [9]: 0.075 OD450
OD450 [10]: 0.083 OD450
OD450 [11]: 0.092 OD450
OD450 [12]: 0.165 OD450
OD450 [13]: 0.312 OD450
OD450 [14]: 0.09 OD450

B1: Parental Anti-AGE: murine anti-AGE IgG2b antibody, heavy chain DNA SEQ ID NO: 12, kappa light chain DNA SEQ ID NO: 14 (antibody)
heavy: MDPKGSLSWRILLFLSLAFELSYGQVQLLQPGAELVKPGASVKLACKASGYLFTTYWMHWLKQRPGQGLEWIGEISPTNGRAYYNARFKSEATLTVDKSSNTAYMQLSSLTSEASAVYYCARAYGNYEFAYWGQGTLVTVSVAKTTPPSVYPLAPGCGDTTGSSVTLGCLVKGYFPESVTVTWNSGSLSSSVHTFPALLQSGLYTMSSSVTVPSSTWPSQTVTCSVAHPASSTTVDKKLEPSGPISTINPCPPCKECHKCPAPNLEGGPSVFIFPPNIKDVLMISLTPKVTCVVVDVSEDDPDVQISWFVNNVEVHTAQTQTHREDYNSTIRVVSTLPIQHQDWMSGKEFKCKVNNKDLPSPIERTISKIKGLVRAPQVYILPPPAEQLSRKDVSLTCLVVGFNPGDISVEWTSNGHTEENYKDTAPVLDSDGSYFIYSKLNMKTSKWEKTDSFSCNVRHEGLKNYYLKKTISRSPG
light: METDTLLLWVLLLWVPGSTGDVVMTQTPLSLPVSLGDQASISCRSRQSLVNSNGNTFLQWYLQKPGQSPKLLIYKVSLRFSGVPDRFSGSGSGTDFTLKISRVEAEDLGLYFCSQSTHVPPTFGGGTKLEIKRADAAPTVSIFPPSSEQLTSGGASVVCFLNNFYPKDINVKWKIDGSERQNGVLNSWTDQDSKDSTYSMSSTLTLTKDEYERHNSYTCEATHKTSTSPIVKSFNRNEC
modifications: Murine anti-AGE IgG2b heavy chain; Murine anti-AGE Kappa light chain
OD450 absorbance ([15]; antibody 0.07 μg/mL): 0.086
OD450 absorbance ([15]; antibody 0.21 μg/mL): 0.066
OD450 absorbance ([15]; antibody 0.62 μg/mL): 0.072
OD450 absorbance ([15]; antibody 1.85 μg/mL): 0.063
OD450 absorbance ([15]; antibody 5.56 μg/mL): 0.063
OD450 absorbance ([15]; antibody 16.67 μg/mL): 0.067
OD450 absorbance ([15]; antibody 50 μg/mL): 0.092
Binding to CML-KLH (in words) ([15]; direct binding ELISA): very weak to no binding
OD450 absorbance ([16]; CML Coat (CML and CML-KLH ELISA), antibody 0.07 μg/mL): 0.096
OD450 absorbance ([16]; CML Coat (CML and CML-KLH ELISA), antibody 0.21 μg/mL): 0.096
OD450 absorbance ([16]; CML Coat (CML and CML-KLH ELISA), antibody 0.62 μg/mL): 0.085
OD450 absorbance ([16]; CML Coat (CML and CML-KLH ELISA), antibody 1.85 μg/mL): 0.099
OD450 absorbance ([16]; CML Coat (CML and CML-KLH ELISA), antibody 5.56 μg/mL): 0.115
OD450 absorbance ([16]; CML Coat (CML and CML-KLH ELISA), antibody 16.67 μg/mL): 0.13
OD450 absorbance ([16]; CML Coat (CML and CML-KLH ELISA), antibody 50 μg/mL): 0.142
Binding to CML (in words) ([16]; direct binding ELISA): very weak to no binding
OD450 absorbance ([16]; second, CML-only ELISA, antibody 0.068587 μg/mL): 0.055
OD450 absorbance ([16]; second, CML-only ELISA, antibody 0.205761 μg/mL): 0.056
OD450 absorbance ([16]; second, CML-only ELISA, antibody 0.617284 μg/mL): 0.103
OD450 absorbance ([16]; second, CML-only ELISA, antibody 1.851852 μg/mL): 0.078
OD450 absorbance ([16]; second, CML-only ELISA, antibody 5.555556 μg/mL): 0.166
OD450 absorbance ([16]; second, CML-only ELISA, antibody 16.66667 μg/mL): 0.226
OD450 absorbance ([16]; second, CML-only ELISA, antibody 50 μg/mL): 0.165
